Laboratory results reported in US12296012 (Pfizer, dated 2025).

B1: P5F7 (scFv format) (scFv)
scFv: EVQLLESGGGLVQPGGSLRLSCAASGFTFSSYAMNWVRQAPGKGLEWVSSISGGGRSTYYADSVKGRFTISRDNSKNTLYLQMNSLRAEDTAVYYCARDLSPSDVGWGYGFDIWGQGTLVTVSSGGGGSGGGGSGGGGSEIVLTQSPATLSLSPGERATLSCRASQSVSSNLAWYQQKPGQAPRLLIYDTFTRATGIPARFSGSGSGTDFTLTISRLEPEDFAVYYCQQYGSSPPTFGQGTRLEIK
B2: P4H11 (scFv format) (scFv)
scFv: EVQLLESGGGLVQPGGSLRLSCAASGFTFSSYAMNWVRQAPGKGLEWVSSISGGGRSTYYADSVKGRFTISRDNSKNTLYLQMNSLRAEDTAVYYCARDLSPSDVGWGYGFDIWGQGTLVTVSSGGGGSGGGGSGGGGSEIVLTQSPGTLSLSPGERATLSCRASQSVSNTYLAWYQQKPGQAPRLLIYDTSSRATGIPDRFSGSGSGTDFTLTISRLEPEDFAVYYCQQYGSSLTFGQGTKVEIK
B3: P4C7 (scFv format) (scFv, not shown: a dimerising Fc or GST; small tags and cut ends)
scFv: QVQLVQSGAEVKKPGSSVKVSCKASGGTFSSYTISWVRQAPGQGLEWMGGIIPAFGIANYAQKFQGRVTITADKSTSTAYMELSSLRSEDTAVYYCAKGGSYSLDYFDIWGQGTLVTVSSGGGGSGGGGSGGGGSEIVLTQSPGTLSLSPGERATLSCRASQYVSASLLAWYQQKPGQAPRLLIYGASTRATGIPDRFSGSGSGTDFTLTISRLEPEDFAVYYCQQYARSSTFGQGTKVEIK
B4: P14G2 (scFv format) (scFv)
scFv: EVQLLESGGGLVQPGGSLRLSCAASGFTFSNYVMNWVRQAPGKGLEWVSAISGSGATTYYADSVKGRFTISRDNSKNTLYLQMNSLRAEDTAVYYCVSGLWAGGIWGQGTLVTVSSGGGGSGGGGSGGGGSDIQMTQSPSSLSASVGDRVTITCRASQSISSYLNWYQQKPGKAPKLLIYDASDLQRGVPSRFSGSGSGTDFTLTISSLQPEDFATYYCQQSYNTPWTFGQGTKVEIK
B5: P7F9 (scFv format) (scFv)
scFv: EVQLLESGGGLVQPGGSLRLSCAASGFTFSSYAMSWVRQAPGKGLEWVSAIGGSGGSTYYADSVKGRFTISRDNSKNTLYLQMNSLRAEDTAMYYCARDYYAFSDPAYGGMDVWGQGTLVTVSSGGGGSGGGGSGGGGSNFMLTQPHSVSESPGKTVTISCTRSSGSIASNYVQWYQQKPGQAPVLVVYDDSDRPSGIPERFSGSNSGNTATLTISRVEAGDEADYYCQVWDSSSDHWVFGGGTKLTVL
B6: P5A3 (scFv format) (scFv, not shown: a dimerising Fc or GST; small tags and cut ends)
scFv: QVQLVQSGAEVKKPGSSVKVSCKASGGTFSSYYIGWVRQAPGQGLEWMGGIIPWFGTANYAQKFQGRVTITADKSTNTAYMELSSLRSEDTAVYYCAADHHDSPSGYTSGGFDVWGQGTLVTVSSGGGGSGGGGSGGGGSQSALTQPASVSGSPGQSITISCTGTSSDVGGYNYVSWYQQHPGKAPKLMIYEVSKRPSGVPDRFSGSKSGNTASLTVSGLQAEDEADYYCSSYAGSNTVVFGGGTKLTVL
B7: P9B5 (scFv format) (scFv, not shown: a dimerising Fc or GST; small tags and cut ends)
scFv: EVQLLESGGGLVQPGGSLRLSCAASGFIFASYAMSWVRQAPGKGLEWVSEISSSGGSTTYADSVKGRFTISRDNSKNTLYLQMNSLRAEDTAVYYCARDRVMAGLGYDPFDYWGQGTLVTVSSGGGGSGGGGSGGGGSQSVLTQPPSASGTPGQRVTISCSGSSSNIGSNYVYWYQQLPGTAPKLLIYRNNQRPSGVPDRFSGSKSGTSASLAISGLRSEDEADYYCAAWDDSLSGVVFGGGTKLTVL
B8: P9F1 (scFv format) (scFv, not shown: a dimerising Fc or GST; small tags and cut ends)
scFv: EVQLLESGGGLVQPGGSLRLSCAASGFIFSSFAMSWVRQAPGKGLEWVSDISGSGASTYYADSVKGRFTISRDNSKNTLYLQMNSLRAEDTAVYYCASASGGSGSYWPYMDPWGQGTLVTVSSGGGGSGGGGSGGGGSQSVLTQPPSASGTPGQRVTISCSGSGSNIGSNYVYWYQQLPGTAPKLLIYRNNQRPSGVPDRFSGSKSGTSASLAISGLRSEDEADYYCAAWDGSLSRPVFGTGTKLTVL
B9: P1B4 (scFv format) (scFv, not shown: a dimerising Fc or GST; small tags and cut ends)
scFv: QVQLVQSGAEVKKPGSSVKVSCKASGGVFSRYALSWVRQAPGQGLEWMGGIIPMLGFANYAQKFQGRVTITADESTSTAYMELSSLRSEDTAVYYCATLDFGALDYWGQGTLVTVSSGGGGSGGGGSGGGGSEIVLTQSPGTLSLSPGERATLSCRASQSVPNEQLAWYQQKPGQAPRLLIYDASSRATGIPDRFSGSGSGTDFTLTISRLEPEDFAVYYCQQYGSPPLTFGQGTKVEIK
B10: P1A5 (scFv format) (scFv)
scFv: QVQLVQSGAEVKKPGSSVKVSCKASGGVFSRYALSWVRQAPGQGLEWMGGIIPMLGFANYAQKFQGRVTITADESTSTAYMELSSLRSEDTAVYYCATLDFGALDYWGQGTLVTVSSGGGGSGGGGSGGGGSEIVLTQSPGTLSLSPGERATLSCRASQAVDSSDLAWYQQKPGQAPRLLIYDAYTRPSGIPDRFSGSGSGTDFTLTISRLEPEDFAVYYCQQYGSSPLTFGGGTKLEIK
B11: P1B11 (scFv format) (scFv, not shown: a dimerising Fc or GST; small tags and cut ends)
scFv: QVQLVQSGAEVKKPGSSVKVSCKASGGTFRSFDISWVRQAPGQGLEWMGRIIPILGYANYAQKFQGRVTITADESTSTAYMELSSLRSEDTAVYYCASDLGAPWAGYPFDPWGQGTLVTVSSGGGGSGGGGSGGGGSEIVLTQSPGTLSLSPGERATLSCRASQSVSSSELAWYQQKPGQAPRLLIYDASSRATGIPDRFSGSGSGTDFTLTISRLEPEDFAVYYCQQYDSSPLTFGQGTKVEIK
B12: P7H3 (scFv format) (scFv, not shown: a dimerising Fc or GST; small tags and cut ends)
scFv: EVQLLESGGGLVQPGGSLRLSCAASGFTFSSYAMHWVRQAPGKGLEWVSAISGSGGSTYYADSVKGRFTISRDNSKNTLYLQMNSLRAEDTAVYYCARGTRWWWGDAFDHWGQGTLVTVSSGGGGSGGGGSGGGGSQSVLTQPPSVSVAPGKTARITCGGNNIGSKSVHWYQQKPGQAPVLVIYYDSDRPSGIPERFSGSNSGNTATLTISRVEAGDEADYYCQVWDSSTAWVFGGGTKLTVL
B13: P3E10 (scFv format) (scFv)
scFv: QVQLVQSGAEVKKPGSSVKVSCKASGGTFSSYAIQWVRQAPGQGLEWMGGIVGSWGLANYAQKFQGRVTITTDKSTSTAYMELSSLRSEDTAVYYCATSAFGELASWGQGTLVTVSSGGGGSGGGGSGGGGSEIVLTQSPGTLSLSPGERATLSCRASQSVPSSQLAWYQQKPGQAPRLLIYDASSRATGIPDRFSGSGSGTDFTLTISRLEPEDFAVYYCQQYGSSPLTFGQGTKVEIK

The binders below were run against T1, human FLT3 (human, UniProt P36888 27-541, limits assumed) (assay: SPR Biacore T200, 37C; scFv format).
T1 construct: Soluble analyte hFLT3 in SPR; also called hFLT3; huFlt3
T1 sequence: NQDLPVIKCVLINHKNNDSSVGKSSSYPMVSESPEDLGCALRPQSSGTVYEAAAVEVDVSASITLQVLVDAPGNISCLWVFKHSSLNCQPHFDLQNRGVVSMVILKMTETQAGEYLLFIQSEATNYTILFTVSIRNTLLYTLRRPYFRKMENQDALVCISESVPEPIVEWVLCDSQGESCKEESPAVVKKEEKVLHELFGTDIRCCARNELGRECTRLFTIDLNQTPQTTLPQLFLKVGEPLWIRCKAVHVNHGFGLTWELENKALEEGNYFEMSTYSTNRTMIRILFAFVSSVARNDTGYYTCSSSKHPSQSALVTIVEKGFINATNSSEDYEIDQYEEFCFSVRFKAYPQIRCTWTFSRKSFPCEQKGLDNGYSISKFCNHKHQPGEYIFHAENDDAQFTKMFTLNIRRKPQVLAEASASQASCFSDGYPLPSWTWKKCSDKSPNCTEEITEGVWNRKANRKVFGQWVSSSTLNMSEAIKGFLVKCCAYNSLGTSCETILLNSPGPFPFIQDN

Binder | Kd | koff | kon | t1/2
B1 | 1 nM | 0.000197 s⁻¹ | 189000 M⁻¹ s⁻¹ | 59 min
B2 | 58.3 nM | 0.00933 s⁻¹ | 160000 M⁻¹ s⁻¹ | 1 min
B3 | 13.6 nM | 0.00164 s⁻¹ | 121000 M⁻¹ s⁻¹ | 7 min
B4 | 3.3 nM | 0.000305 s⁻¹ | 93500 M⁻¹ s⁻¹ | 37.9 min
B5 | 27.7 nM | 0.00241 s⁻¹ | 87000 M⁻¹ s⁻¹ | 4.8 min
B6 | 216 nM | 0.0175 s⁻¹ | 81000 M⁻¹ s⁻¹ | 0.7 min
B7 | 18.1 nM | 0.000687 s⁻¹ | 38000 M⁻¹ s⁻¹ | 16.8 min
B8 | 126 nM | 0.0286 s⁻¹ | 226000 M⁻¹ s⁻¹ | 0.4 min
B9 | 27.3 nM | 0.00327 s⁻¹ | 120000 M⁻¹ s⁻¹ | 3.5 min
B10 | 1.1 nM | 0.000292 s⁻¹ | 259000 M⁻¹ s⁻¹ | 40 min
B11 | 30.3 nM | 0.00257 s⁻¹ | 84700 M⁻¹ s⁻¹ | 4.5 min
B12 | 9.1 nM | 0.00187 s⁻¹ | 205000 M⁻¹ s⁻¹ | 6.2 min
B13 | 65.1 nM | 0.0112 s⁻¹ | 172000 M⁻¹ s⁻¹ | 1 min
